Results taken from PMC4294677 (Molecular Biology of the Cell, 2015).

Columns and labels:
[1] = target: phospho-HOPS (HOPS phosphorylated by the vacuolar kinase Yck3p) (S. cerevisiae, UniProt P12868;Q03308;P27801;P20795;Q07468;P38959); assay: liposome floatation
[2] = target: HOPS (homotypic fusion and vacuole protein sorting complex) (S. cerevisiae, UniProt P12868;Q03308;P27801;P20795;Q07468;P38959); assay: liposome floatation

B1: Ypt7p:GTP (vacuolar Rab-family GTPase Ypt7p in its GTP-bound state) (natural protein)
chain: MSSRKKNILKVIILGDSGVGKTSLMHRYVNDKYSQQYKATIGADFLTKEVTVDGDKVATMQVWDTAGQERFQSLGVAFYRGADCCVLVYDVTNASSFENIKSWRDEFLVHANVNSPETFPFVILGNKIDAEESKKIVSEKSAQELAKSLGDIPLFLTSAKNAINVDTAFEEIARSALQQNQADTEAFEDDYNDAINIRLDGENNSCSC
binding result [1]: binds
binding result [2]: binds
